Measurements as given in patent US7101975B1, “Method and composition for inhibition of angiogenesis using antagonists based on MMP-9 and β1 integrins” (University of Southern California, priority 1999, dated 2006).
“Also recorded” adds a separate entry of the source. Where no end group is shown, it is not given here.

Columns and labels:
MMP-9 = MMP-9 (Homo sapiens, UniProt P14780); test: Solid phase binding assay of synthetic peptides to MMP-9; conditions: solid phase binding assays, FIG. 7
Experimental: For example, synthetic peptides were generated and analyzed for binding activity to MMP-9. The binding ability of the peptides was analyzed by solid phase binding assays.

[1] = test system: angiogenesis on the CAMs of chick embryos; test: Chick embryo CAM angiogenesis assay (bFGF-induced); format: in vivo; conditions: 10 day old chick embryos, single IV injection 100 μg 24 h later, counted three days later, FIG. 8B
Description: For example, one assay measures angiogenesis in the chick chorioallantoic membrane (CAM) and is referred to as the CAM assay. The CAM assay has been described in detail by others, and further has been used to measure both angiogenesis and neovascularization of tumor tissues. See Ausprunk et al., Am. J. Pathol., 79:597-618 (1975) and Ossonski et al., Cancer Res., 40:2300-2309 (1980).
Angiogenesis was induced on the CAMs of 10 day old chick embryos with bFGF. Twenty-four hours later the embryos received a single IV injection with 100 μg of FRIP-1 or AAA control peptide. Three days later angiogenesis was quantified by counting the number of blood vessel branch points within the area of the filter disc. […] FIG. 8B is a quantification of the angiogenesis experiments. […] In FIG. 8B, NT corresponds to No bFGF, FRIP-1 to bFGF+FRIP-1 peptide, and AAA to bFGF+control AAA peptide. Data bars represent the mean±standard errors of 5 to 10 embryos per condition.

Sequence of MMP-9 (P14780 94-707): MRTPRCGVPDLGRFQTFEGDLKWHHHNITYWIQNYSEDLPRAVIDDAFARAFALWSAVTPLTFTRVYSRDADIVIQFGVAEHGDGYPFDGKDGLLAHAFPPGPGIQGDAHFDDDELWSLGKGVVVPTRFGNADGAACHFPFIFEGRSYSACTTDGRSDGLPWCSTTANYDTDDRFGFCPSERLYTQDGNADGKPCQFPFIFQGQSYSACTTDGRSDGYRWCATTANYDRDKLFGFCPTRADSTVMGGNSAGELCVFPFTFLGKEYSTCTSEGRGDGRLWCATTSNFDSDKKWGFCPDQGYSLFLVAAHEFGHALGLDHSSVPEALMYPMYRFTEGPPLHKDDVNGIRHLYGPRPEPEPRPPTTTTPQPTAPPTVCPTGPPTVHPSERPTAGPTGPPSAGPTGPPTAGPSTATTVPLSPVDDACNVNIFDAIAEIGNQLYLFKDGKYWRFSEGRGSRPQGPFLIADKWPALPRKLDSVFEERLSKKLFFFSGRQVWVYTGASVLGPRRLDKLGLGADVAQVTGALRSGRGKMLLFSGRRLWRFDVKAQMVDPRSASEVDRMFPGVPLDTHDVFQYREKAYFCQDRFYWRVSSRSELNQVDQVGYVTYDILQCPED

| Sequence | binding to MMP-9 (MMP-9) | angiogenesis (number of blood vessel branch points within the area of the filter disc) [1] |
| --- | --- | --- |
| CRAAAAEPQC (cysteine pairing not given here) [control peptide, reference compound] | binds with substantially reduced affinity | – |
| CRAAAGEPQC (cysteine pairing not given here) [control peptide identical to FRIP-1 except that 3 key amino acids were changed, reference compound] | little in any binding ability | – |
| CRLRSGEPQC (cysteine pairing not given here) [synthetic peptide derived from the C-terminal hemopexin-like domain of human MMP-9] | specifically bind to MMP-9; also recorded: binds to MMP-9 | blocks angiogenesis; also recorded: inhibit angiogenesis |
